# Source: patent publication US20220119469
# T1: Spy-C cMyBP-C (cMyBP-C of Spy-C mice with a TEV protease recognition site and a SpyTag sequence in the linker between domains C7 and C8), uncut
# T1 chain: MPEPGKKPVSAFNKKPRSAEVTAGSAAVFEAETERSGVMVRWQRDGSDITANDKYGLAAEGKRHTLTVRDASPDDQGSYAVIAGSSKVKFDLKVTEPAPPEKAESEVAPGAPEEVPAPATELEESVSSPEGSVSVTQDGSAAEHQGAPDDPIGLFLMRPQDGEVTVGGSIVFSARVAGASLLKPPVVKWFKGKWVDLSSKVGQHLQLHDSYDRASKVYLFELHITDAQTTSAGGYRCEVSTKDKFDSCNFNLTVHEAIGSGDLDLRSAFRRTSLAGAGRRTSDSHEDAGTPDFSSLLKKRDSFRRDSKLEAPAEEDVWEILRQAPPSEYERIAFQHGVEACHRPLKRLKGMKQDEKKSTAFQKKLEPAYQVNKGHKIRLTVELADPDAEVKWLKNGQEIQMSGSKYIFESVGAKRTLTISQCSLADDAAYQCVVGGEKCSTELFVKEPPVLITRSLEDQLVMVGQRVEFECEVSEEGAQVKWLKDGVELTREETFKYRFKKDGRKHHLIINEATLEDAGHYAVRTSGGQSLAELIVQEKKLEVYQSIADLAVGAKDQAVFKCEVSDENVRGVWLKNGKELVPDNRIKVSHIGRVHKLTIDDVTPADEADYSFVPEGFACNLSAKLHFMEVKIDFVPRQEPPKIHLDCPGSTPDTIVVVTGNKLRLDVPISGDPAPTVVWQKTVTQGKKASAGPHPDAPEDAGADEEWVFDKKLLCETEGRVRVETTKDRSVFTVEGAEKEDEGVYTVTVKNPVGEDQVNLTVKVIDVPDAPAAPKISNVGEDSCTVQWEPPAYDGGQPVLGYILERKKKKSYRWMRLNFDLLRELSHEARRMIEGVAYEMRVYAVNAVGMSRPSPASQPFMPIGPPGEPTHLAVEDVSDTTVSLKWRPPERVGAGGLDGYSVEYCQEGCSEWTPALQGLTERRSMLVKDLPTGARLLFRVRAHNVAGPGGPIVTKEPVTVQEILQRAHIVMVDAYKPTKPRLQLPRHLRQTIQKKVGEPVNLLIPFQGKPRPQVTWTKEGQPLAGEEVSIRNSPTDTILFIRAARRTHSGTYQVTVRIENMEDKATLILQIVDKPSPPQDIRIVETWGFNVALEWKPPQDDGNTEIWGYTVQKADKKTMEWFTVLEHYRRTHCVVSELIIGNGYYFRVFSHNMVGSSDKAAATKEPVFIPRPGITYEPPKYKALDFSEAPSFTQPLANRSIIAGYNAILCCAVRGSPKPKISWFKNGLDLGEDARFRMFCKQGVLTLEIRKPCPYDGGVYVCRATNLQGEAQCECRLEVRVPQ
# B1: TEV protease (protein)
# chain: GESLFKGPRDYNPISSTICHLTNESDGHTTSLYGIGFGPFIITNKHLFRRNNGTLLVQSLHGVFKVKNTTTLQQHLIDGRDMIIIRMPKDFPPFPQKLKFREPQREERICLVTTNFQTKSMSSMVSDTSCTFPSSDGIFWKHWIQTKDGQCGSPLVSTRDGFIVGIHSASNFTNTNNYFTSVPKNFMELLTNQEAQQWVSGWRLNADSVLWGGHKVFMSKPEEPFQPVKEATQLMN
# Tests used:
# [1] = biological target: endogenous MyBP-C in wild type soleus tissue
# [2] = biological target: T1, Spy-C cMyBP-C (cMyBP-C of Spy-C mice …)
# [3] = biological target: endogenous MyBP-C of homozygous soleus tissue (with TEV site and SpyTag), uncut
protein,measurement,setting,value
B1,size on western blot,[1],"the size of endogenous MyBP-C in wild type tissue is unaffected by TEVp, washing and addition of replacement protein"
same,cleavage in permeabilized myocytes,[2],Spy-C cMyBP-C was cleaved at the TEV site
same,decrease in molecular weight on western blot,[3],"endogenous MyBP-C domains C1-C7 in homozygous tissue are cleaved with TEV protease (TEVp), shown by a decrease in molecular weight"
